Key:
Assay in all cases: SPR; BIAcoreX; synthetic SBP peptide thiol-coupled by its N-terminal cysteine to a CM5 chip, streptavidin variant as analyte; blank flow cell as reference
Details in all cases: both partners purified
[1] = target: T1, SAVSBPM12 streptavidin mutein (G48T) (UniProt P22629 25-183, G48T)
T1 construct: streptavidin with the mutation G48T; Secreted by means of the SacB signal peptide; Its oligomeric state was not measured; also called G48T streptavidin mutein; source: B. subtilis WB800[pSAVSBPM12], secreted, purified (biotin-agarose), denatured and renatured, then iminobiotin-agarose

[2] = target: T2, SAVSBPM18 engineered streptavidin (S27A, G48T) (UniProt P22629 25-183, S27A | G48T)
T2 construct: streptavidin with the double mutation S27A, G48T; Secreted by means of the B. subtilis levansucrase (SacB) signal peptide; also called streptavidin SAVSBPM18; source: B. subtilis WB800[pSAVSBPM18], secreted, purified (biotin-agarose)

[3] = target: T3, wild-type streptavidin (UniProt P22629 25-183)
T3 construct: wild-type streptavidin, commercial; also called wt SAV; wt streptavidin; source: bought: Sigma Canada
T3 sequence (P22629 25-183): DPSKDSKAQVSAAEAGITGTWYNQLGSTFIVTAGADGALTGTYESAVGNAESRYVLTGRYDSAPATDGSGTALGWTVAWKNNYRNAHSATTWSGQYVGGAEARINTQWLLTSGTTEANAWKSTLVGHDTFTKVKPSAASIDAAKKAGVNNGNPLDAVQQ

T2 sequence (P22629 25-183 S51A/G72T): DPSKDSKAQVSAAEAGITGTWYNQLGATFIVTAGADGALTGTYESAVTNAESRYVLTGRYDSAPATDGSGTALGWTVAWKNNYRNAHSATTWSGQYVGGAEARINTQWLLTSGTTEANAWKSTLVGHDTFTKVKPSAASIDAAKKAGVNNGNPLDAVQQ
T1 sequence (P22629 25-183 G72T): as the sequence (P22629 25-183 S51A/G72T) above, with A27S counted along it

B1: synthetic 59-amino acid peptide with the full length SBP tag (peptide)
peptide: CGGGGSTSGGSTSGGSTSGGGMDEKTTGWRGGHVVEGLAGELEQLRARLEHHPQGQREP
notes: N-terminal cysteine for thiol coupling to the CM5 chip, then the 20-amino-acid glycine-rich linker; the limits are worked out as 1 Cys + 20 linker + 38 SBP = 59; also called SBP tag (peptide); synthetic SBP tag; source: synthetic peptide (Peptide 2.0 Inc.)
Kd [1]: 1.99 nM
koff [1]: 0.00056 s⁻¹
kon [1]: 281000 M⁻¹ s⁻¹
Kd [2]: 7.67 nM
koff [2]: 0.000821 s⁻¹
kon [2]: 107000 M⁻¹ s⁻¹
Kd [3]: 1.65 nM
koff [3]: 0.000496 s⁻¹
kon [3]: 300000 M⁻¹ s⁻¹

Source: publication PMC3712923, “Structure-Guided Design of an Engineered Streptavidin with Reusability to Purify Streptavidin-Binding Peptide Tagged Proteins or Biotinylated Proteins” (PLoS ONE, 2013)
